Here are results for two molecules from patent publication US20140295012A1, “LATENT HUMAN IMMUNODEFICIENCY VIRUS REACTIVATION” (priority 2011, published 2014).

Data set [1] deals with chronically actively infected T cell lines (JNLG#35 and JNLG#44). Briefly: Active HIV-1 transcription in chronically actively infected T cell lines JNLG#35 and JNLG#44 (GFP MCF). Type of data set: cell-based. The following applies: 48 hours. The method, then: Changes in HIV-1 transcription levels were determined after 48 hours by measuring GFP mean channel fluorescence intensity (GFP MCF). GFP MCF was plotted over the drug concentration for dactinomycin (FIG. 12A), the DNA intercalators daunorubicin (DM) (FIG. 12B) and rebeccamycin (RM) (FIG. 12C), as well as the transcription inhibitors ICRF-193 (FIG. 12D), DRB (FIG. 12E) and α-amanitin (FIG. 12F). The size of symbols indicates the respective cell viability in the sample (size range adjusted to 5-95%).
For this purpose, each of the compounds was titrated over a relevant range of concentrations on two chronically actively infected T cell lines (JNLG#35 and JNLG#44). These clonal cell lines are infected with a GFP-reporter virus. Forty eight hours after addition of the compounds, the effect of each compound on HIV-1 transcription was determined by flow cytometric analysis quantifying GFP mean channel fluorescence intensity (MCF).

Data set [2] relates to cell culture. Briefly: Cytotoxicity in cell culture and therapeutic index. Type of data set: cell-based. The text has this:
The HRFs provided herein show little to no cytotoxicity and have a therapeutic index greater than 300. A therapeutic index is a comparison of the amount of a therapeutic agent that causes a therapeutic effect to the amount that causes death. The therapeutic index is a ratio given by the lethal dose of a drug or agent for 50% of the population (LD50) divided by the minimum effective therapeutic dose for 50% of the population (ED50). A high therapeutic index is preferable.

The test system of data set [3] is NF-κB p50. In words: NF-κB p50 activity in nuclear extracts of Jurkat cells (TransAM NF-κB family ELISA). Type of data set: cell-based. The procedure: FIGS. 7A-7D are graphs showing the kinetics of HRF-mediated induction of NF-κB activity. Jurkat or latently HIV-1 infected CA5 T cells were stimulated with optimal concentrations of PMA and HRF, and cells were harvested at the indicated time points. Nuclear extracts were generated and (FIGS. 7A and 7C) NF-κB p50 activity and (FIGS. 7B and 7D) NF-κB p65 activity were determined using the TransAM™ NF-κB family ELISA kit (Active Motif; Carlsbad, Calif.).
Cells were grown in RPMI medium supplemented with 10% FBS and 1% PSG to approximately 5×10^5 cells per milliliter. Cells were centrifuged and resuspended in fresh pre-warmed medium. PMA, HRF and/or JNKiV were added immediately at the indicated concentrations. The final cell density for the assay was 1×10^6 cells per milliliter. The culture flasks were kept in a humidified CO2 incubator at 37° C. For each time point, a 1 ml cell suspension was removed and immediately centrifuged at full speed in a tabletop centrifuge for 30 seconds. […] The protein concentration of the extracts was determined by using the BCA protein assay Kit (ThermoFisher). […] The absorbance at 595 nm was determined using a 96 well plate reader (Synergy HT, BIO-Tek; Winooski, Vt.).
NF-κB activity in nuclear extracts was quantified using the TransAM™ NF-κB family ELISA kit from Active Motif, Inc. (Carlsbad, Calif.) according to the manufacturer's instructions.
On the technique in general: ELISA stands for enzyme-linked immunosorbent assay.

Data set [4] has as its system Jurkat T cells. In words: Protection of Jurkat T cells from poly (I:C) induced apoptosis (viability). The following applies: compared with Salmonella typhimurium flagellin. Type of data set: cell-based. The method, then: High concentrations of poly (I:C) trigger apoptosis in Jurkat cells and reduce cell viability. Viability of control cells (C) was compared to the viability of cell cultures treated with poly (I:C) (10 μg/ml) and increasing amounts of either flagellin or HRF.

The test system of data set [5] is IL-8, TNF-α, and IFN-γ. In words: Cytokine secretion by PBMCs (BioPlex analysis). It counts as cell-based, human. To be noted: 24 hours. The procedure:
FIGS. 8A-8C show HRF induced NF-κB and cytokine expression in peripheral blood mononuclear cells (PBMCs). […] PBMCs were activated with optimal concentrations of either PHA-L or with HRF. Cells were harvested at the indicated time points. Nuclear extracts were generated and NF-κB p50 activity and NF-κB p65 activity were determined using the TransAM™ NF-κB family ELISA kit (Active Motif). […] PBMCs from four different healthy donors were stimulated with an anti-CD3/CD28 antibody combination and infected with a GFP reporter virus on day 4 post-stimulation. HIV-1 replication was monitored in the absence (C) or presence of HRF for 5 days and the achieved HIV-1 infection levels were determined by flow cytometric analysis for the percentage of EGFP-positive cells. […] Culture supernatants were collected after 24 hours and the concentrations of a panel of cytokines was determined by BioPlex analysis. […]
Following stimulation of the peripheral blood mononuclear cells (PBMCs) with PHA-L or HIV-1 reactivating factor (HRF), supernatant samples were collected at time points between 12 and 48 hours post stimulation. […] Therefore, cytokine levels in culture supernatant samples from all donors were determined at the 24 hour time point using a customized Milliplex mAP kit for the simultaneous analysis of six human cytokines (IL-2, IL-4, IL-6, IL-8, TNF-α and IFN-γ). […]

*1 amine or outer side, *2 acyl side, *3 side chain or, on linkers, in order; H or OH if unused. Where a SMILES comes first, the peptide text is derived from it. Bridges are numbered along the chain shown (N, C = ends). Roman numbers before positions name the chains, in order. [ ]: non-standard residue; d: D form. Actinocin(9to1) = Cc1c2oc3c(C)ccc(C(=O)[*:1])c3nc-2c(C(=O)[*:2])c(N)c1=O; NMeV = CN[C@H](C(=O)O)C(C)C; Sar = CNCC(=O)O

Consider `Cc1c2oc3c(C)ccc(C(=O)N[C@@H]4C(=O)N[C@H](C(C)C)C(=O)N5CCC[C@H]5C(=O)N(C)CC(=O)N(C)[C@@H](C(C)C)C(=O)O[C@@H]4C)c3nc-2c(C(=O)N[C@@H]2C(=O)N[C@H](C(C)C)C(=O)N3CCC[C@H]3C(=O)N(C)CC(=O)N(C)[C@@H](C(C)C)C(=O)O[C@@H]2C)c(N)c1=O` [dactinomycin] (I: T[dV]P[Sar][NMeV] / II: T[dV]P[Sar][NMeV]; ester I:1-I:C, II:1-II:C; linker I:N-II:N via Actinocin(9to1)), for which the “effect on active HIV-1 infection / transcription (GFP MCF)” value in data set [1] is listed as “did not boost active infection, but rather inhibited active infection”.

B1: HRF: flagellin polypeptide from Massilia timonae (SEQ ID NO:10), used as bacterial culture supernatant (protein)
chain: MASVINTNVPSLNSQRNLSTSQAQLNTSIQRLSSGMRINSAKDDAAGLAISDRMNSQIKGMTQATRNANDGVSMAQTAEGALSSSGDILQRIRELAVQSSNSSNSASDRKALQTEVTQLSSELNRIANTTEFNGQKLMDGTLGTANFQVGANAGQLISMTGANFNTSVYGNNQIAGDAAKAAATTSAAATGAFTISGYLGTSAAINTTDADTAKTIAASINNVTGDTGVTATARTDSFLKSAGGAHTMSLASDNSGTGEAVDISFTVGDGGDTADDYAAAISAFNAQTAKTGVTAEYDAVEKGLKLTNSAGENISLTNKAGSADIDMDTYAADGALMASALTLEAGDVGVANGRVTMDSEKSFSVAEGTDTGFELADSSALKSVAKIDISDFEGAQEAIKVADAALSAVNSQRAEYGALQSRFESAISNLSSSTENLSASRSRIVDTDFAAETAKMTRGQILQQAGTSMLAQANSLPNGVLSLLRG
On to B1, for which, in data set [2], the “cytotoxicity in cell culture” value was “far less cytotoxic”. Further, in data set [2] (LD50/ED50), the therapeutic index is over 300. The “NF-κB p50 activation amplitude compared to PMA stimulation” value in data set [3] (Jurkat cells) is listed as about 3 fold. The “duration of induced NF-κB activity in comparison to PMA” value in data set [3] (parental Jurkat T cells) is reported as “less sustained”. In addition, in data set [4], the “protection from induced apoptosis” value is on record as “greater efficacy”. Moreover, in data set [5], the “pro-inflammatory cytokine secretion (IL-8, TNF-α, and IFN-γ)” value is reported as “did not induce meaningful levels”.
